Measured values reported in IntAct's records for PubMed 27857056.

B1: UDP-glucuronosyltransferase 2B7 (Homo sapiens), P16662 (parent)
chain: MSVKWTSVILLIQLSFCFSSGNCGKVLVWAAEYSHWMNIKTILDELIQRGHEVTVLASSASILFDPNNSSALKIEIYPTSLTKTELENFIMQQIKRWSDLPKDTFWLYFSQVQEIMSIFGDITRKFCKDVVSNKKFMKKVQESRFDVIFADAIFPCSELLAELFNIPFVYSLSFSPGYTFEKHSGGFIFPPSYVPVVMSELTDQMTFMERVKNMIYVLYFDFWFEIFDMKKWDQFYSEVLGRPTTLSETMGKADVWLIRNSWNFQFPYPLLPNVDFVGGLHCKPAKPLPKEMEDFVQSSGENGVVVFSLGSMVSNMTEERANVIASALAQIPQKVLWRFDGNKPDTLGLNTRLYKWIPQNDLLGHPKTRAFITHGGANGIYEAIYHGIPMVGIPLFADQPDNIAHMKARGAAVRVDFNTMSSTDLLNALKRVINDPSYKENVMKLSRIQHDQPVKPLDRAVFWIEFVMRHKGAKHLRVAAHDLTWFQYHSLDVIGFLLVCVATVIFIVTKCCLFCFWKFARKAKKGKND
partner: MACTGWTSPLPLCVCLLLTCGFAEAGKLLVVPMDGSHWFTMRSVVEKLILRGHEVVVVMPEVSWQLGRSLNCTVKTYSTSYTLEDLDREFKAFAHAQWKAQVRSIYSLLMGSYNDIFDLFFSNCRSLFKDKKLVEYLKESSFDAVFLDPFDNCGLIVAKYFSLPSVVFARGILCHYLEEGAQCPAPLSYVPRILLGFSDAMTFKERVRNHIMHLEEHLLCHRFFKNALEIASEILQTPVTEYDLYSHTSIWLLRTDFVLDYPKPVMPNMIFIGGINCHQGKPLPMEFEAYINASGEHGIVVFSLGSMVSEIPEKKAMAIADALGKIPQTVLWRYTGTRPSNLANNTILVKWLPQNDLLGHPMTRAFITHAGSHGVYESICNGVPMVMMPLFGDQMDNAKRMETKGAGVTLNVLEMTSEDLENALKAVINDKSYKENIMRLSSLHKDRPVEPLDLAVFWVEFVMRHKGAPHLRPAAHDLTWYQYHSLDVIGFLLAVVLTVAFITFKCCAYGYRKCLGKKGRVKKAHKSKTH
B2: UDP-glucuronosyltransferase 1A9 (Homo sapiens), O60656-1 (parent)
chain: B1 partner
partner: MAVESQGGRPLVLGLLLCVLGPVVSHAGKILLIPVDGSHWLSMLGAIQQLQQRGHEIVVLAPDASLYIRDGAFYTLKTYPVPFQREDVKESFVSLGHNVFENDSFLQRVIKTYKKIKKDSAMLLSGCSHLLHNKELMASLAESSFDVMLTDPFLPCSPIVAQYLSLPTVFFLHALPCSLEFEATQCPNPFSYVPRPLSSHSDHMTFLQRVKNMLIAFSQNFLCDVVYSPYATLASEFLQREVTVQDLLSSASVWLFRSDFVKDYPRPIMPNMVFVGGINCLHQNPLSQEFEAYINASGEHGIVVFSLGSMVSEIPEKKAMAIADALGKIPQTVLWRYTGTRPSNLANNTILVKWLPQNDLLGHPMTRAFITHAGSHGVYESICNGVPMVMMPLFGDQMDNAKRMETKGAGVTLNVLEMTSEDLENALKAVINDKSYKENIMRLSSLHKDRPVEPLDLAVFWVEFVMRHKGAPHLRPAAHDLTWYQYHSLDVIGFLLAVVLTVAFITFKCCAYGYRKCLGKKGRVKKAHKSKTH

Variants of: B1
Settings: with UGT1A9, O60656-1

| Variant | effect of a mutation on the interaction |
| --- | --- |
| MSVKWTSVILLIQLSFCFSSGNCGKVLVWAAEYSHWMNIKTILDELIQRGHEVTVLASSASILFDPNNSSALKIEIYPTSLTKTELENFIMQQIKRWSDLPKDTFWLYFSQVQEIMSIFGDITRKFCKDVVSNKKFMKKVQESRFDVIFADAIFPCSELLAELFNIPFVYSLSFSPGYTFEKHSGGFIFPPSYVPVVMSELTDQMTFMERVKNMIYVLYFDFWFEIFDMKKWDQFYSEVLGRPTTLSETMGKADVWLIRNSWNFQFPYPLLPNVDFVGGLHCKPAKPLPKEMEDFVQSSGENGVVVFSLGSMVSNMTEERANVIASALAQIPQKVLWRFDGNKPDTLGLNTRLYKWIPQNDLLGHPKTRAFITHGGANGIYEAIYHGIPMVGIPLFANQPDNIAHMKARGAAVRVDFNTMSSTDLLNALKRVINDPSYKENVMKLSRIQHDQPVKPLDRAVFWIEFVMRHKGAKHLRVAAHDLTWFQYHSLDVIGFLLVCVATVIFIVTKCCLFCFWKFARKAKKGKND [D398N] | with no effect |
| MSVKWTSVILLIQLSFCFSSGNCGKVLVWAAEYSHWMNIKTILDELIQRGHEVTVLASSASILFDPNNSSSLKIEIYPTSLTKTELENFIMQQIKRWSDLPKDTFWLYFSQVQEIMSIFGDITRKFCKDVVSNKKFMKKVQESRFDVIFADAIFPCSELLAELFNIPFVYSLSFSPGYTFEKHSGGFIFPPSYVPVVMSELTDQMTFMERVKNMIYVLYFDFWFEIFDMKKWDQFYSEVLGRPTTLSETMGKADVWLIRNSWNFQFPYPLLPNVDFVGGLHCKPAKPLPKEMEDFVQSSGENGVVVFSLGSMVSNMTEERANVIASALAQIPQKVLWRFDGNKPDTLGLNTRLYKWIPQNDLLGHPKTRAFITHGGANGIYEAIYHGIPMVGIPLFADQPDNIAHMKARGAAVRVDFNTMSSTDLLNALKRVINDPSYKENVMKLSRIQHDQPVKPLDRAVFWIEFVMRHKGAKHLRVAAHDLTWFQYHSLDVIGFLLVCVATVIFIVTKCCLFCFWKFARKAKKGKND [A71S] | with no effect |

Variants of: B2
Settings: with UGT1A1, P22309-1

| Variant | effect of a mutation on the interaction |
| --- | --- |
| MACTGWTSPLPLCVCLLLTCGFAEAGKLLVVPTDGSHWFTMRSVVEKLILRGHEVVVVMPEVSWQLGRSLNCTVKTYSTSYTLEDLDREFKAFAHAQWKAQVRSIYSLLMGSYNDIFDLFFSNCRSLFKDKKLVEYLKESSFDAVFLDPFDNCGLIVAKYFSLPSVVFARGILCHYLEEGAQCPAPLSYVPRILLGFSDAMTFKERVRNHIMHLEEHLLCHRFFKNALEIASEILQTPVTEYDLYSHTSIWLLRTDFVLDYPKPVMPNMIFIGGINCHQGKPLPMEFEAYINASGEHGIVVFSLGSMVSEIPEKKAMAIADALGKIPQTVLWRYTGTRPSNLANNTILVKWLPQNDLLGHPMTRAFITHAGSHGVYESICNGVPMVMMPLFGDQMDNAKRMETKGAGVTLNVLEMTSEDLENALKAVINDKSYKENIMRLSSLHKDRPVEPLDLAVFWVEFVMRHKGAPHLRPAAHDLTWYQYHSLDVIGFLLAVVLTVAFITFKCCAYGYRKCLGKKGRVKKAHKSKTH [M33T] | with no effect |
| MAYTGWTSPLPLCVCLLLTCGFAEAGKLLVVPMDGSHWFTMRSVVEKLILRGHEVVVVMPEVSWQLGRSLNCTVKTYSTSYTLEDLDREFKAFAHAQWKAQVRSIYSLLMGSYNDIFDLFFSNCRSLFKDKKLVEYLKESSFDAVFLDPFDNCGLIVAKYFSLPSVVFARGILCHYLEEGAQCPAPLSYVPRILLGFSDAMTFKERVRNHIMHLEEHLLCHRFFKNALEIASEILQTPVTEYDLYSHTSIWLLRTDFVLDYPKPVMPNMIFIGGINCHQGKPLPMEFEAYINASGEHGIVVFSLGSMVSEIPEKKAMAIADALGKIPQTVLWRYTGTRPSNLANNTILVKWLPQNDLLGHPMTRAFITHAGSHGVYESICNGVPMVMMPLFGDQMDNAKRMETKGAGVTLNVLEMTSEDLENALKAVINDKSYKENIMRLSSLHKDRPVEPLDLAVFWVEFVMRHKGAPHLRPAAHDLTWYQYHSLDVIGFLLAVVLTVAFITFKCCAYGYRKCLGKKGRVKKAHKSKTH [C3Y] | with no effect |
| MACTGWTSPLPLCVCLLLTCGFAEAGKLLVVPMDGSHWFTMRSVVEKLILRGHEVVVVMPEVSWQLGRSLNCTVKTYSTSYTLEDLDREFKAFAHAQWKAQVRSIYSLLMGSYNDIFDLFFSNCRSLFKDKKLVEYLKESSFDAVFLDPFDNCGLIVAKYFSLPSVVFARGILCHYLEEGAQCPAPLSYVPRILLGFSDAMTFKERVRNHIMHLEEHLLCHRFFKNALEIASEILQTPVTEYDLYSHTSIWLLRTNFVLDYPKPVMPNMIFIGGINCHQGKPLPMEFEAYINASGEHGIVVFSLGSMVSEIPEKKAMAIADALGKIPQTVLWRYTGTRPSNLANNTILVKWLPQNDLLGHPMTRAFITHAGSHGVYESICNGVPMVMMPLFGDQMDNAKRMETKGAGVTLNVLEMTSEDLENALKAVINDKSYKENIMRLSSLHKDRPVEPLDLAVFWVEFVMRHKGAPHLRPAAHDLTWYQYHSLDVIGFLLAVVLTVAFITFKCCAYGYRKCLGKKGRVKKAHKSKTH [D256N] | with no effect |
